Legend:
Assay in all cases: ITC; GppNHp-Rab35 (480 μM) injected in 2 μl aliquots into the C-terminal MICAL1 domain (60 μM) in the cell; 10 °C; 50 mM Tris pH 8, 150 mM NaCl, 2 mM MgCl2, 2 mM TCEP, 5% glycerol; one-site model
[1] = molecular target: MICAL1^879–1067 (tag cleaved, for ITC) (human) (UniProt Q8TDZ2)
[2] = molecular target: MICAL1^918–1067 WT C-terminal domain (tag cleaved) (human) (UniProt Q8TDZ2)
[3] = molecular target: MICAL1^918–1067 mutant S1 (human) (UniProt Q8TDZ2)

MICAL1^918–1067 WT C-terminal domain (tag cleaved) (human), sequence (Q8TDZ2 918-1067): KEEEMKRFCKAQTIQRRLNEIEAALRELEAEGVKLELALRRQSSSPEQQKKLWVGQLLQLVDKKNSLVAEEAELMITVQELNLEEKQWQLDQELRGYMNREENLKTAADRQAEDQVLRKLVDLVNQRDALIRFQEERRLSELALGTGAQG
MICAL1^879–1067 (tag cleaved, for ITC) (human), sequence (Q8TDZ2 879-1067): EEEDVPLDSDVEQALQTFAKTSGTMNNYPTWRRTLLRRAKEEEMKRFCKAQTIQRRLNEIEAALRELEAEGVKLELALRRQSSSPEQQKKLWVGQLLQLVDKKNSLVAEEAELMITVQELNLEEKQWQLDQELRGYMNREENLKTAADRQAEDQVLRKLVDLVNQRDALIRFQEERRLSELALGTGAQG

- Kd [1]: 13 µM
- Kd [2]: 6.4 µM
- stoichiometry N [2]: 1
- stoichiometry N [3]: 1
Substance: Rab35 (recombinant, for ITC and competition; Rab35^1-199 taken as the likeliest construct) (from UniProt Q15286 1-199) (natural protein)

Source: PMC5331220
